The Human Domainome abundance scans (Beltran et al. 2025)
± gives the uncertainty stated by the source.

B1: Tripartite motif-containing protein 44, residues 174 to 218; numbered along this chain, Q96DX7 (parent)
chain: VAKRKCPDHGLDLSTYCQEDRQLICVLCPVIGAHQGHQLSTLDEA
B2: Far upstream element-binding protein 2, residues 142 to 214; numbered along this chain, Q92945 (parent)
chain: RTSMTEEYRVPDGMVGLIIGRGGEQINKIQQDSGCKVQISPDSGGLPERSVSLTGAPESVQKAKMMLDDIVSR

Variants of: B1
Test: abundance fitness (aPCA) (normalised: wild type 0, dead -1); higher = more abundant; growth selection in yeast, the domain comes from the species named
Conditions: Homo sapiens

Abundance fitness of substitutions, site by site:
A45: S -0.243 ± 0.036, T 0.021 ± 0.039, V -0.022 ± 0.042, W -0.036 ± 0.05

Variants of: B2
Test: as above
Conditions: Homo sapiens

Abundance fitness: each site, then its substitutions
R1: A -0.205 ± 0.068, D 0.017 ± 0.079, E 0.075 ± 0.065, F -0.297 ± 0.19, G -0.071 ± 0.037, H -0.256 ± 0.2, I 0.195 ± 0.11, K 0.166 ± 0.063, L -0.071 ± 0.097, M 0.19 ± 0.07, N 0.101 ± 0.081, P -0.27 ± 0.11, Q 0.036 ± 0.11, S -0.072 ± 0.053, W -0.143 ± 0.054, Y -0.195 ± 0.13
T2: A -0.13 ± 0.045, C -0.198 ± 0.08, D 0.003 ± 0.078, E -0.025 ± 0.05, G -0.04 ± 0.044, H -0.138 ± 0.088, I -0.04 ± 0.076, K -0.007 ± 0.065, L -0.079 ± 0.046, M 0.104 ± 0.053, N 0.109 ± 0.08, P -0.227 ± 0.052, Q -0.421 ± 0.057, R -0.169 ± 0.04, S 0.071 ± 0.046, V 0.004 ± 0.048, W -0.567 ± 0.06, Y -0.016 ± 0.11
S3: A 0.028 ± 0.04, C 0.152 ± 0.055, D 0.17 ± 0.058, E 0.151 ± 0.048, F 0.251 ± 0.073, G 0.003 ± 0.036, H 0.009 ± 0.068, I 0.137 ± 0.067, K 0.219 ± 0.058, L 0.074 ± 0.041, N 0.224 ± 0.065, P 0.043 ± 0.043, Q 0.124 ± 0.047, T 0.213 ± 0.045, V 0.144 ± 0.039, W 0.05 ± 0.048, Y 0.125 ± 0.073
M4: A -0.716 ± 0.052, C 0.045 ± 0.062, D -0.106 ± 0.072, E -0.085 ± 0.047, F 0.02 ± 0.087, G -0.431 ± 0.038, H -0.107 ± 0.065, I -0.096 ± 0.11, K 0.029 ± 0.056, L -0.002 ± 0.043, N -0.178 ± 0.084, P -0.365 ± 0.051, Q 0.057 ± 0.054, R -0.079 ± 0.037, S -0.072 ± 0.046, T -0.063 ± 0.049, V -0.069 ± 0.044, W -0.15 ± 0.049
T5: A -0.248 ± 0.042, C -0.125 ± 0.055, D -0.319 ± 0.055, E -0.304 ± 0.046, F -0.331 ± 0.084, G -0.485 ± 0.039, H -0.235 ± 0.054, L -0.384 ± 0.04, N -0.16 ± 0.07, P -0.62 ± 0.047, Q -0.117 ± 0.045, R -0.168 ± 0.034, S -0.11 ± 0.039, V -0.154 ± 0.041, W -0.456 ± 0.045, Y -0.248 ± 0.075
E6: A -0.021 ± 0.039, C 0.051 ± 0.053, D -0.171 ± 0.053, F -0.1 ± 0.073, G -0.189 ± 0.034, H -0.062 ± 0.065, I -0.086 ± 0.069, K -0.027 ± 0.05, L 0.07 ± 0.042, M 0.187 ± 0.052, N -0.255 ± 0.069, Q 0.045 ± 0.053, R -0.068 ± 0.035, S -0.017 ± 0.041, T 0.125 ± 0.048, V 0.097 ± 0.039, W -0.086 ± 0.046, Y -0.147 ± 0.066
E7: A -0.136 ± 0.039, C -0.178 ± 0.051, D -0.036 ± 0.057, F 0.074 ± 0.073, H 0.043 ± 0.069, I -0.028 ± 0.065, K -0.115 ± 0.048, L 0.021 ± 0.04, M -0.02 ± 0.049, N -0.109 ± 0.066, P -0.137 ± 0.047, Q 0.017 ± 0.05, S -0.088 ± 0.04, T 0.046 ± 0.045, V -0.194 ± 0.04, W -0.1 ± 0.043, Y 0.028 ± 0.063
Y8: C -0.609 ± 0.063, D -0.477 ± 0.057, E -0.496 ± 0.045, F -0.116 ± 0.073, G -0.576 ± 0.036, H -0.12 ± 0.067, I -0.061 ± 0.062, K -0.417 ± 0.055, L -0.089 ± 0.039, N -0.536 ± 0.082, P -0.342 ± 0.056, Q -0.51 ± 0.058, R -0.455 ± 0.037, S -0.472 ± 0.046, T -0.214 ± 0.048, V -0.057 ± 0.038, W -0.007 ± 0.041
R9: A -0.145 ± 0.04, C -0.132 ± 0.061, D -0.155 ± 0.059, E -0.094 ± 0.045, F 0.068 ± 0.068, G -0.235 ± 0.035, H 0.135 ± 0.069, I 0.055 ± 0.076, K 0.119 ± 0.057, L 0.076 ± 0.042, M 0.064 ± 0.058, N 0.078 ± 0.076, P 0.041 ± 0.05, Q 0.137 ± 0.05, S -0.024 ± 0.042, T 0.053 ± 0.05, V -0.046 ± 0.04, W -0.033 ± 0.044, Y 0.025 ± 0.066
V10: A -0.289 ± 0.044, C -0.137 ± 0.057, D -0.467 ± 0.064, E -0.456 ± 0.051, F -0.132 ± 0.072, I -0.02 ± 0.062, K -0.603 ± 0.067, L 0.068 ± 0.041, M 0.041 ± 0.058, N -0.567 ± 0.081, P -0.456 ± 0.059, Q -0.709 ± 0.062, R -0.741 ± 0.044, S -0.628 ± 0.047, T -0.464 ± 0.051, W -0.726 ± 0.073, Y -0.224 ± 0.077
P11: A -0.131 ± 0.047, D -0.122 ± 0.061, E -0.193 ± 0.056, F -1.07 ± 0.16, G -0.472 ± 0.048, H -0.536 ± 0.089, I -0.277 ± 0.1, K -0.178 ± 0.06, L -0.362 ± 0.048, M -0.375 ± 0.064, N -0.371 ± 0.069, Q -0.221 ± 0.058, R -0.299 ± 0.041, T -0.158 ± 0.056, V -0.425 ± 0.052, W -0.765 ± 0.069, Y -0.712 ± 0.11
D12: C -0.175 ± 0.071, E -0.003 ± 0.055, F -0.153 ± 0.075, G -0.04 ± 0.047, H 0.013 ± 0.076, I 0.041 ± 0.095, K -0.032 ± 0.061, N -0.14 ± 0.079, P 0.051 ± 0.053, Q -0.039 ± 0.058, R 0.088 ± 0.043, S 0.054 ± 0.048, T 0.105 ± 0.059, V -0.097 ± 0.046, W -0.524 ± 0.062, Y -0.204 ± 0.071
G13: A -0.072 ± 0.044, C -0.127 ± 0.056, D 0.134 ± 0.061, E 0.12 ± 0.051, F -0.184 ± 0.091, I -0.039 ± 0.08, K 0.066 ± 0.055, L -0.174 ± 0.044, M -0.052 ± 0.055, N 0.18 ± 0.062, P -0.124 ± 0.046, Q 0.09 ± 0.051, R 0.07 ± 0.037, S 0.122 ± 0.041, T 0.035 ± 0.046, V -0.389 ± 0.047, W -0.097 ± 0.051, Y -0.005 ± 0.091
M14: A -0.111 ± 0.042, D -0.209 ± 0.06, E -0.208 ± 0.047, F -0.349 ± 0.071, G -0.361 ± 0.04, H -0.235 ± 0.063, I -0.003 ± 0.065, K -0.017 ± 0.053, L -0.048 ± 0.04, N -0.148 ± 0.069, P -0.898 ± 0.063, Q -0.243 ± 0.046, R -0.314 ± 0.038, S -0.219 ± 0.042, T -0.21 ± 0.047, V -0.094 ± 0.042, W -0.319 ± 0.05, Y -0.19 ± 0.073
V15: A -0.053 ± 0.058, C -0.22 ± 0.077, D -0.217 ± 0.081, E -0.03 ± 0.065, F -0.076 ± 0.088, G -0.282 ± 0.058, H -0.214 ± 0.1, I -0.06 ± 0.079, K -0.251 ± 0.085, L 0.068 ± 0.05, M 0.035 ± 0.073, N -0.376 ± 0.13, P -0.462 ± 0.064, Q -0.272 ± 0.06, R -0.335 ± 0.05, S -0.219 ± 0.053, T -0.227 ± 0.059, W -0.081 ± 0.063, Y -0.197 ± 0.092
G16: A -0.037 ± 0.043, C -0.334 ± 0.06, D 0.136 ± 0.064, E 0.049 ± 0.053, F -0.499 ± 0.1, H -0.019 ± 0.075, I -0.994 ± 0.12, K -0.068 ± 0.056, L -0.495 ± 0.049, N -0.093 ± 0.089, P -0.015 ± 0.046, Q -0.034 ± 0.056, R -0.078 ± 0.038, S -0.076 ± 0.043, T -0.101 ± 0.052, V -0.619 ± 0.048, W -0.229 ± 0.056
L17: A 0.016 ± 0.047, C -0.118 ± 0.08, D 0.061 ± 0.064, E 0.074 ± 0.051, F -0.072 ± 0.078, G -0.023 ± 0.043, H -0.087 ± 0.084, I -0.045 ± 0.083, K -0.059 ± 0.056, N -0.119 ± 0.087, P -0.199 ± 0.051, Q -0.028 ± 0.059, S -0.021 ± 0.047, T 0.045 ± 0.053, V -0.113 ± 0.048, W -0.111 ± 0.05, Y -0.147 ± 0.089
I18: A -0.276 ± 0.042, C -0.595 ± 0.066, D -0.312 ± 0.063, E -0.287 ± 0.054, F -0.122 ± 0.071, G -0.363 ± 0.037, H -0.51 ± 0.072, K -0.333 ± 0.052, L 0.035 ± 0.042, M -0.17 ± 0.055, N -0.345 ± 0.068, P -0.324 ± 0.055, Q -0.346 ± 0.054, S -0.398 ± 0.046, T -0.282 ± 0.052, V -0.158 ± 0.041, W -0.562 ± 0.049, Y -0.494 ± 0.079
I19: A -0.096 ± 0.048, C -0.114 ± 0.078, D -0.179 ± 0.076, E -0.103 ± 0.076, F -0.098 ± 0.083, G -0.146 ± 0.054, H -0.17 ± 0.073, K -0.01 ± 0.072, L 0.008 ± 0.045, M 0.096 ± 0.068, N -0.029 ± 0.097, P -0.35 ± 0.051, Q -0.105 ± 0.061, R -0.091 ± 0.044, V -0.016 ± 0.049, W -0.144 ± 0.07, Y 0.005 ± 0.081
